Results as given in patent publication US20260167699A1 (Chugai, published 2026).

Target: T1, FcγRIIIa extracellular domain, C-terminal His tag (human, UniProt P08637 17-208)
T1 construct: extracellular domain; also called 3a
Experiment: SPR, binding activity relative to GpH7-A5/GpH7-B3/GpL16-k0 (=100)

T1 sequence (P08637 other isoform, or with tags, fused parts or gaps): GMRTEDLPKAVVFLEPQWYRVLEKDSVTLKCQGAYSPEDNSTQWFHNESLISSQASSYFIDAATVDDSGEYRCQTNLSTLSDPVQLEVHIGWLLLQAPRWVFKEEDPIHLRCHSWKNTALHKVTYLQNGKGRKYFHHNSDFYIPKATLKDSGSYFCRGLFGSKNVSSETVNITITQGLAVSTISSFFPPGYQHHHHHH

| He/Con 3a [%] | Binder |
| --- | --- |
| 104 | GpH7-A5/GpH7-B3 variant S239_18N/GpL16-k0 (antibody, human IgG1, kappa, He Ab; copies: 1 + 1 + 2) heavy 1: not shown heavy 2: not shown light: DIVMTQSPLSLPVTPGEPASISCQASESLVHSNRNTYLHWYLQKPGQSPQLLIYKVSNRFSGVPDRFSGSGSGTDFTLKISRVEAEDVGVYYCSQNTHVPPTFGQGTKVEIERTVAAPSVFIFPPSDEQLKSGTASVVCLLNNFYPREAKVQWKVDNALQSGNSQESVTEQDSKDSTYSLSSTLTLSKADYEKHKVYACEVTHQGLSSPVTKSFNRGEC |
| 149 | GpH7-A5/GpH7-B3 variant S267_02A/GpL16-k0 (antibody, human IgG1, kappa, He Ab; copies: 1 + 1 + 2) heavy 1: not shown heavy 2: not shown light: DIVMTQSPLSLPVTPGEPASISCQASESLVHSNRNTYLHWYLQKPGQSPQLLIYKVSNRFSGVPDRFSGSGSGTDFTLKISRVEAEDVGVYYCSQNTHVPPTFGQGTKVEIERTVAAPSVFIFPPSDEQLKSGTASVVCLLNNFYPREAKVQWKVDNALQSGNSQESVTEQDSKDSTYSLSSTLTLSKADYEKHKVYACEVTHQGLSSPVTKSFNRGEC |
| 65.3 | GpH7-A5/GpH7-B3 variant S267_06M/GpL16-k0 (antibody, human IgG1, kappa, He Ab; copies: 1 + 1 + 2) heavy 1: not shown heavy 2: not shown light: DIVMTQSPLSLPVTPGEPASISCQASESLVHSNRNTYLHWYLQKPGQSPQLLIYKVSNRFSGVPDRFSGSGSGTDFTLKISRVEAEDVGVYYCSQNTHVPPTFGQGTKVEIERTVAAPSVFIFPPSDEQLKSGTASVVCLLNNFYPREAKVQWKVDNALQSGNSQESVTEQDSKDSTYSLSSTLTLSKADYEKHKVYACEVTHQGLSSPVTKSFNRGEC |
| 179 | GpH7-A5/GpH7-B3 variant S267_09D/GpL16-k0 (antibody, human IgG1, kappa, He Ab; copies: 1 + 1 + 2) heavy 1: not shown heavy 2: not shown light: DIVMTQSPLSLPVTPGEPASISCQASESLVHSNRNTYLHWYLQKPGQSPQLLIYKVSNRFSGVPDRFSGSGSGTDFTLKISRVEAEDVGVYYCSQNTHVPPTFGQGTKVEIERTVAAPSVFIFPPSDEQLKSGTASVVCLLNNFYPREAKVQWKVDNALQSGNSQESVTEQDSKDSTYSLSSTLTLSKADYEKHKVYACEVTHQGLSSPVTKSFNRGEC |
| 64.3 | GpH7-A5/GpH7-B3 variant S267_19Q/GpL16-k0 (antibody, human IgG1, kappa, He Ab; copies: 1 + 1 + 2) heavy 1: not shown heavy 2: not shown light: DIVMTQSPLSLPVTPGEPASISCQASESLVHSNRNTYLHWYLQKPGQSPQLLIYKVSNRFSGVPDRFSGSGSGTDFTLKISRVEAEDVGVYYCSQNTHVPPTFGQGTKVEIERTVAAPSVFIFPPSDEQLKSGTASVVCLLNNFYPREAKVQWKVDNALQSGNSQESVTEQDSKDSTYSLSSTLTLSKADYEKHKVYACEVTHQGLSSPVTKSFNRGEC |
| 53.3 | GpH7-A5/GpH7-B3 variant S267_01G/GpL16-k0 (antibody, human IgG1, kappa, He Ab; copies: 1 + 1 + 2) heavy 1: not shown heavy 2: not shown light: DIVMTQSPLSLPVTPGEPASISCQASESLVHSNRNTYLHWYLQKPGQSPQLLIYKVSNRFSGVPDRFSGSGSGTDFTLKISRVEAEDVGVYYCSQNTHVPPTFGQGTKVEIERTVAAPSVFIFPPSDEQLKSGTASVVCLLNNFYPREAKVQWKVDNALQSGNSQESVTEQDSKDSTYSLSSTLTLSKADYEKHKVYACEVTHQGLSSPVTKSFNRGEC |
| 90.9 | GpH7-A5/GpH7-B3 variant S267_10E/GpL16-k0 (antibody, human IgG1, kappa, He Ab; copies: 1 + 1 + 2) heavy 1: not shown heavy 2: not shown light: DIVMTQSPLSLPVTPGEPASISCQASESLVHSNRNTYLHWYLQKPGQSPQLLIYKVSNRFSGVPDRFSGSGSGTDFTLKISRVEAEDVGVYYCSQNTHVPPTFGQGTKVEIERTVAAPSVFIFPPSDEQLKSGTASVVCLLNNFYPREAKVQWKVDNALQSGNSQESVTEQDSKDSTYSLSSTLTLSKADYEKHKVYACEVTHQGLSSPVTKSFNRGEC |
| 52 | GpH7-A5/GpH7-B3 variant S267_18N/GpL16-k0 (antibody, human IgG1, kappa, He Ab; copies: 1 + 1 + 2) heavy 1: not shown heavy 2: not shown light: DIVMTQSPLSLPVTPGEPASISCQASESLVHSNRNTYLHWYLQKPGQSPQLLIYKVSNRFSGVPDRFSGSGSGTDFTLKISRVEAEDVGVYYCSQNTHVPPTFGQGTKVEIERTVAAPSVFIFPPSDEQLKSGTASVVCLLNNFYPREAKVQWKVDNALQSGNSQESVTEQDSKDSTYSLSSTLTLSKADYEKHKVYACEVTHQGLSSPVTKSFNRGEC |
| 53.8 | GpH7-A5/GpH7-B3 variant S239_19Q/GpL16-k0 (antibody, human IgG1, kappa, He Ab; copies: 1 + 1 + 2) heavy 1: not shown heavy 2: not shown light: DIVMTQSPLSLPVTPGEPASISCQASESLVHSNRNTYLHWYLQKPGQSPQLLIYKVSNRFSGVPDRFSGSGSGTDFTLKISRVEAEDVGVYYCSQNTHVPPTFGQGTKVEIERTVAAPSVFIFPPSDEQLKSGTASVVCLLNNFYPREAKVQWKVDNALQSGNSQESVTEQDSKDSTYSLSSTLTLSKADYEKHKVYACEVTHQGLSSPVTKSFNRGEC |
